Laboratory results taken from US20230265151A1, “GIP/GLP1 CO-AGONIST COMPOUNDS” (priority 2020, published 2023).
Where a chain is given by its changes, count along the chain named. *1 amine or outer side, *2 acyl side, *3 side chain or, on linkers, in order; H or OH if unused. Where no end group is shown, it is not given here. Side-chain parts run from the residue outwards. [ ]: non-standard residue; d: D form. The star is where a group is joined. αMePhe(2-F) = C[C@](N)(Cc1ccccc1F)C(=O)O; γGlu = O=C(O)[C@H](CCC(=O)[*:2])N[*:1]; C14 diacid = O=C(O)CCCCCCCCCCCCC(=O)*; αMeY = C[C@](N)(Cc1ccc(O)cc1)C(=O)O; αMeF = C[C@](N)(Cc1ccccc1)C(=O)O; αMeL = CC(C)C[C@](C)(N)C(=O)O; Orn = NCCC[C@H](N)C(=O)O; AEEA = NCCOCCOCC(=O)O; Aib = CC(C)(N)C(=O)O

B1: Example 62 (peptide)
peptide: YXEGTXTSDXSIXLDXKAQXEXIXXLIEGGKSSGAPPPS
modifications: Aib2, αMeF(2F)6, 4Pal10, αMeL13, Orn16, Aib20, 3ClPhe22, D-Glu24, αMeY25, K17 and K31: K(AEEA2-(γ-Glu)-CO-(CH2)12-CO2H), C-terminal NH2
B2: Example 66 (peptide)
peptide: B1 peptide
modifications: Aib2, αMeF(2F)6, 4Pal10, αMeL13, Orn16, Aib20, 1Nal22, D-Glu24, αMeY25, K17 and K31: K(AEEA2-(γ-Glu)-CO-(CH2)12-CO2H), C-terminal NH2
B3: Example 63 (peptide)
peptide: B1 peptide
modifications: Aib2, αMeF(2F)6, 4Pal10, αMeL13, Orn16, Aib20, 2FPhe22, D-Glu24, αMeY25, K17 and K31: K(AEEA2-(γ-Glu)-CO-(CH2)12-CO2H), C-terminal NH2
B4: Example 77 (peptide)
peptide: B1 peptide with E21K, X22F, K31P
modifications: Aib2, αMeF(2F)6, 4Pal10, αMeL13, Orn16, Aib20, D-Glu24, αMeY25, K17 and K21: K(AEEA3-(γ-Glu)-CO-(CH2)12-CO2H), C-terminal NH2
B5: Example 85 (peptide)
peptide: B1 peptide with X24K, X25Y, K31P
modifications: Aib2, αMeF(2F)6, 4Pal10, αMeL13, Orn16, Aib20, αMeF22, K17 and K24: K(AEEA2-(γ-Glu)-CO-(CH2)12-CO2H), C-terminal NH2
B6: Example 86 (peptide)
peptide: B1 peptide with K17Q, X22F, E28K
modifications: Aib2, αMeF(2F)6, 4Pal10, αMeL13, Orn16, Aib20, D-Glu24, αMeY25, K28 and K31: K(AEEA2-(γ-Glu)-CO-(CH2)12-CO2H), C-terminal NH2
B7: Example 87 (peptide)
peptide: B1 peptide with X22F
modifications: Aib2, αMeF(2F)6, αMeF(2F)10, αMeL13, Orn16, Aib20, D-Glu24, αMeY25, K17 and K31: K(AEEA2-(γ-Glu)-CO-(CH2)12-CO2H), C-terminal NH2
B8: Example 71 (peptide)
peptide: B1 peptide with K17I, X22F, X24K
modifications: Aib2, αMeF(2F)6, 4Pal10, αMeL13, Orn16, Aib20, αMeY25, K24 and K31: K(AEEA2-(γ-Glu)-CO-(CH2)12-CO2H), C-terminal NH2
B9: Example 96 (peptide)
peptide: B1 peptide with X22F
modifications: Aib2, αMeF(2F)6, 4CPhe10, αMeL13, Orn16, Aib20, D-Glu24, αMeY25, K17 and K31: K(AEEA2-(γ-Glu)-CO-(CH2)12-CO2H), C-terminal NH2
B10: Example 67 (peptide)
peptide: B1 peptide with X22F, X25K, K31P
modifications: Aib2, αMeF(2F)6, 4Pal10, αMeL13, Orn16, Aib20, D-Glu24, K17 and K25: K(AEEA2-(γ-Glu)-(4-(4-tert-butylphenyl)butanoyl)), C-terminal NH2
B11: Example 68 (peptide)
peptide: B1 peptide with X22F, X24E, X25K, K31P
modifications: Aib2, αMeF(2F)6, 4Pal10, αMeL13, Orn16, Aib20, K17 and K25: K(AEEA2-(γ-Glu)-(4-(4-tert-butylphenyl)butanoyl)), C-terminal NH2
B12: Example 5 (peptide)
peptide: B1 peptide with X22F
modifications: Aib2, αMeF(2F)6, 4Pal10, αMeL13, Orn16, Aib20, D-Glu24, αMeY25, K17 and K31: K(AEEA2-(γ-Glu)-CO-(CH2)10-CH3), C-terminal NH2
B13: Example 7 (peptide)
peptide: B1 peptide with X22F
modifications: Aib2, αMeF(2F)6, 4Pal10, αMeL13, Orn16, Aib20, D-Glu24, αMeY25, K17 and K31: K(AEEA2-(γ-Glu)-CO-(CH2)14-CH3), C-terminal NH2
B14: Example 89 (peptide)
peptide: B1 peptide with S11X, X22F
modifications: Aib2, αMeF(2F)6, 4Pal10, Aib11, αMeL13, Orn16, Aib20, D-Glu24, αMeY25, K17 and K31: K(AEEA2-(γ-Glu)-CO-(CH2)12-CO2H), C-terminal NH2
B15: Example 74 (peptide)
peptide: B1 peptide with K17I, E21K, X22F
modifications: Aib2, αMeF(2F)6, 4Pal10, αMeL13, Orn16, Aib20, D-Glu24, αMeY25, K21 and K31: K(AEEA2-(γ-Glu)-CO-(CH2)12-CO2H), C-terminal NH2
B16: Example 84 (peptide)
peptide: B1 peptide with X24K, K31P
modifications: Aib2, αMeF(2F)6, 4Pal10, αMeL13, Orn16, Aib20, αMeF22, αMeF25, K17 and K24: K(AEEA2-(γ-Glu)-CO-(CH2)12-CO2H), C-terminal NH2
B17: Example 65 (peptide)
peptide: B1 peptide
modifications: Aib2, αMeF(2F)6, 4Pal10, αMeL13, Orn16, Aib20, 3,5FPhe22, D-Glu24, αMeY25, K17 and K31: K(AEEA2-(γ-Glu)-CO-(CH2)12-CO2H), C-terminal NH2
B18: Example 80 (peptide)
peptide: B1 peptide with X22F, X24K, K31P
modifications: Aib2, αMeF(2F)6, 4Pal10, αMeL13, Orn16, Aib20, αMeY25, K17 and K24: K(AEEA3-(γ-Glu)-CO-(CH2)12-CO2H), C-terminal NH2

How the values were obtained:
Assay in all cases: cell-based or functional assay
human GIP receptor = molecular target: T1, human GIP receptor (human, UniProt P48546 22-466)
T1 sequence (looked up): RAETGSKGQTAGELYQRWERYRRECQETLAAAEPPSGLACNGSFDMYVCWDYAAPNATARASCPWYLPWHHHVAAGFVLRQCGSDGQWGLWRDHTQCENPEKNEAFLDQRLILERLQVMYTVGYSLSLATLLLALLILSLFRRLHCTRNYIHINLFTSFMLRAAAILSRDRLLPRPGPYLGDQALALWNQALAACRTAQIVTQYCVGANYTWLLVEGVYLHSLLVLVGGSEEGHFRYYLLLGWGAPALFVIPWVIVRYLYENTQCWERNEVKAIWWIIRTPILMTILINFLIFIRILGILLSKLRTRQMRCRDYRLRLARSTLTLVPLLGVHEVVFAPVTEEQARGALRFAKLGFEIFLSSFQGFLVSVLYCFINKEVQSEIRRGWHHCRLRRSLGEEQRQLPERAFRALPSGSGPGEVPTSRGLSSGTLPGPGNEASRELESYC

human GLP-1 receptor = human GLP-1 receptor (human, UniProt P43220 24-463)
human glucagon receptor = human glucagon receptor (human, UniProt P47871 26-477)

Binder | EC50, cAMP (human GIP receptor) [nM] | Emax, cAMP (human GIP receptor) [%] | EC50, cAMP (human GLP-1 receptor) [nM] | EC50, cAMP (human glucagon receptor) [nM] | Emax, cAMP (human GLP-1 receptor) [%]
Y[Aib]EGT[αMePhe(2-F)]TSDV[Aib]I[αMeL]LD[Orn]K([AEEA-AEEA-γGlu-C14 diacid])AQ[Aib]E[αMeF]I[dE][αMeY]LIEGGK([AEEA-AEEA-γGlu-C14 diacid])SSGAPPPS-NH2 [Example 93] | 0.0448 | 99.4 | 0.575 | > 9950 | –
B1 | 0.0211 | – | 0.48 | > 9950 | 99.4
B2 | 0.0168 | – | 0.355 | > 9950 | –
B3 | 0.0176 | – | 1.86 | > 9950 | 90.6
B4 | 0.0288 | – | 3.03 | > 9950 | 87
B5 | 0.0312 | 91.7 | 7.69 | > 9950 | 95.3
B6 | 0.0184 | 94.2 | 0.359 | > 9950 | –
B7 | 0.029 | 84.7 | 1.34 | > 9950 | –
B8 | 0.0171 | 93.8 | 0.246 | > 9950 | –
B9 | 0.0484 | – | 6.81 | > 9950 | –
B10 | 0.00795 | – | 2.63 | > 9950 | 91.7
B11 | 0.0105 | – | 0.668 | > 9950 | 95.9
B12 | 0.00585 | – | 0.057 | > 9150 | –
B13 | 0.00327 | – | 0.00676 | > 9950 | –
B14 | 0.0301 | 88.9 | 1.03 | > 9950 | –
B15 | 0.0156 | 93.3 | 0.334 | > 9950 | –
B16 | 0.0315 | 98.5 | 5.27 | > 9950 | 94
B17 | 0.0139 | – | 0.3 | > 9950 | –
B18 | 0.0245 | 92.4 | 0.718 | > 9950 | –
